Assay results from the nanobody polyreactivity screen of Harvey et al. (2022).

Assay: yeast display, Sf9 membrane polyspecificity reagent, FACS + sequencing; frameworks hold sequencing errors
In short: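 Polyreactivity labels are assigned by the sorting gate from which each nanobody was recovered. The gates were low and high (top ~1%), set on anti-HA fluorescence for expression and streptavidin fluorescence for reagent binding. Before sorting, galactose-induced (36–48 hours) yeast display cells were stained for 1 hour at 4 °C with 10% biotinylated, detergent-solubilized Sf9 membrane reagent.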

Row | Sequence | polyreactivity (PSR sort gate)
1 | QVQLVESGGGLVQAGGSLRLSCGAYGRTFRLYAMGWYRQAPAKERELVAAITRGGRTTYADSVKGRFTSSRDNAQNTVYLQMNSLKPEDTAVYYCAARYVERQTDYYYWGQGTQVTVSS | low polyreactivity
2 | QVQLVESGGGLVQAGGSLRLSCAASGSIFSRYAMGWYRPAPGKERELVAAISRSTGSTYYADSVKGRFTISRDNAKNTVYLQMNSLKPEDTAVYYCAAKWIRWGYVSSNSRFGYWGQGTQVTVSS | high polyreactivity
3 | QVQLVESGGGLVQAGGSLRLSCAASGYTFDSYTMGWYRQAPGKERELFAAITRSGSSTYYADSVKGRFTISRDNAKNTVYLLMNSLKPEDTAVYYCAAGWRRAAGIQYWYGYWGQGTQVTVSS | high polyreactivity
4 | QVQLVESGGGLVQAGGSLRLSCAASGRILTYNTMGWYRQAPGKERELVAAITWRGGSTYYADSVKGRFTISRDNAKNTVYLQMNSLKPEDTAVYYCAKYVAFHYKQYDFNWGQGTQVTVSS | high polyreactivity
5 | QVQLVESGGGLVQAGGSLRLSCAASGSTFRWNAMGWYRQAPGKERELVATITWGGGSTYYADSVKGRFTISRDNAKNTVYLQMNSLKPEDTAVYYCARRQRARYSYYQYNYWGQGTQVTVSS | high polyreactivity
6 | QVQLVESVGCLVQAGGSLRLSCAASGSTFDYYAMGWYRQAPGKERELVAAITSTGRTYYADSVKGRFTISRDNAKNTVYLQMNSLKPEDTAVYYCAADLPWGPLFDYWGQGTQVTVSS | low polyreactivity
7 | QVQLVESCGGLDQAGGSLRLSCAASGRIFYAYAMGWYRQARGKERELVAAITSSGGRTYYADSVKGRFTISRDNAKNTVYLQMNSLKPEDTAVYYCAAYDYWGQGTQVTVSS | low polyreactivity
8 | QVQLVESGGGLVQAGGSLRLSCAASGRIFPTNAMGWYRQAPGKERELVASITRSGSTYYADSVKGRFTISRDNAKNTVYLQMNSLKPEDTAVYYCAADRSAVQFSAFLEYDYWGQGTQVTVSS | low polyreactivity
9 | QVQLVESGGGLVQAGGSLRLICAASGFIFVDNAMGWYRQAPGKERELVAAITSGASTYYADSVKGRFTISRDNAKITVYLQMNSLKPEDTAVYYCAADYLYYYTWYNYWGQGTQVTVSS | low polyreactivity
10 | QVQLEESGGGLVQAGGSLRLSCAATGSTFYDYAMGWYRQAPGKERELVASITFTGGSTYYADSVKGRFTISRDNAKNTVYLQMISLKPEDTAVYFCAAYGWRVHDRWFFERDYWGLGTQVTVSS | high polyreactivity
11 | QVQLVESGGGLVQAGGSLRLSCAASGFTFWYYAMGWYRQAPGKERELVASISASGGRTNYADSVKGRFTISRDNAKNTVYLQMNSLKPEDTAVYYCAACRVRYSYGYPYYYWGQGTQVTVSS | high polyreactivity
12 | QVQLVESGGGLVQAGGSLRLSCAASGRTFSSNAMGWYRQAPGKERELVAVITRRGGSTYYADSVKGRFTISRDNAKNTVYLQMNSLKPEDTAVYYCATDAPPQRSGRRSAGQKYYYLGQGTQVTVSS | high polyreactivity
13 | QVQLVESGGGLVQAGGSLRLSCAASGFTLQPYAMGWYRQAPGKERELVAAISSRGGRTYYADSVKGRFTISRDNAKNTVYLQMNSLKPEDTAVYYCAATGGYVYPRSRLYYYWGQGNQVTVSS | high polyreactivity
14 | QVQLVESGGGLVQAGGSLRLSCAASGRIFRYNGMGWYRQAPGKERELVAVITPRSGTTSYADSVKGRFTISRDNAKNTVYLQMNSLKPEDTAVYYCAADSDWYPSPYDYWGQGTQVTVSS | high polyreactivity
15 | QDQLVESVGGLVQAGGSHRLSCAASGFTLKAYVMGWYRQAPGKERELVAAIRITGGRTYYADSVKGRFTISRDNAKNTVYLQMNSLKPQDTAVYYCNAVKGEPDDYVPFELDYWGQGTQVTVSS | high polyreactivity
16 | QDQLEESGGGLVHAGGSLRLSCAASGRIFLTNAMGWYRQAPGKERELVAAITSGGSTYYADSVKGRFTISRDNEMNTVYLQMNSLNPEDTAVYYCNAYVTSGYANEYYWGQGSQVTVSS | low polyreactivity
17 | QVQLVESGGGLVQAGGSLRLSCAASGSTIYGYGMGWYRQAPGKERELVAAITGSGDTTYYADSVKGRFTISRDNAKNNVYLQMNSLKPEDTAVYYCNARWHAEYDYWGQGTQVTVSS | low polyreactivity
18 | QVQLVESGGGLVQAGGSLRLSCAASGSIFSIYAMGWYRQAPGKERELVAAISWSGGSTYYADSVKGRFTISRDNAKNTVYLQMTSQKPEDTAVYYCLRQDYHYHPYDYWGQGTQVTVSS | low polyreactivity
19 | QVQLVESGGGLVQAGGSLRLSCAASGSTFSYYPMGWYRQAPGKERELVATISKRGGTTSYADSVKGRFTISRDNAKNTVYLQMISLKPEDTAVYYCAARYSKVHYAYDYWGQGTQVTVSS | high polyreactivity
20 | QVQLVESGGGLVQAGGSLRLSCAASGNIFYGYAMGWYRQAPGKERELVAAITSSGGGTSYADSVKGRFTISRDNAKNTVYLQMNSLKPVDTAVYYCTKRPWYLSDYWGQGTQVTVSS | low polyreactivity
21 | QFQLVESGRGLVQAGGSLRLSCAASGRTFSAYAIGWNSQAPVKQRELVAAITRGGSTNYADSVKGRFTISRDNAMNTLYLQMNRLKPEDTAVYYCAARRSSRKDFGYWGQGTQVTVSS | high polyreactivity
22 | QVQLVESGGGLVQAGGSLRLSCAASGSILWLYAMGWYRQAPGKERELVAAISGSGRTNYADSVKGRFTISRDNAKNTVYLQMNSQKPEDTAVYYCARVHGTSESKYYYWGQGTQVTVSL | low polyreactivity

Row | Sequence | polyreactivity (PSR sort gate)
23 | QVQLVESGGGLVQAGGSLRLSCAASGRTFFIYAMGWYRQAPGKERELVAAISNGGSTNYADSVKGRFTISRDYAKNTVYLQMISLKPEDTAVYYCAAQYIGNLRGVFHYEFDWGQGTQVTVSS | high polyreactivity
24 | QVQLVESGGGLVQAGGSLRLSCAASGRIFYTNAMGWYRQAPGKERELVAAISWRGGSTYYADSVKGRFTISRDNAKNTVYFQMNSLKPEDTAVYYCNRYYLSYNYDYWGQGTQVTVSS | high polyreactivity
25 | QVQLVESGGGLVQAGGSLRLSCAASGMIFVNAMGWYRQAPGKEREFVAAITYSTGSTYYADSVKGRFTISRDNAKNTVYLQMNSLKPEDTAVYYCAKDRSGHGTERDYWGQGTQVTVSS | low polyreactivity
26 | QVQLVESGGGLVQAGGSLRLSCAASGITFGDNTMGWYRQAPGKERELVAAITYSSTSTYYADSVKGRFTISRDNPKNTVYLQMNSLKPEDTAVYYCAAEGPVDVVSTDYDYWGQGTQVTVSS | low polyreactivity
27 | QVQLVESGGGLVQAGGSLRLSCAASGRIFGVYAMGWYRQAPGKERELVAAITSSGGRTYYADSVKGRFTISRDNAKNTVYLQMNSLKPEDTAVYYCAALGLSRRGKFNYWGQGTQVTVSS | high polyreactivity
28 | QVQLVESGGGLVQAGGSLRLSCAASGFTFTGNAMGWYRQAPGKERELVAAITSGTSTYYADSVKGRFTISRDNAKNTVYLQMNSLKPEDTAVYYCAKEYPLDGRGSDYCGQGTQVTVSS | low polyreactivity
29 | QVQLVESGGGLVQAGGSLRLSCAASGSTLASYARGWYRQAPGKERELVAAISSSGGSTYYADSVKGRFTISRDNAKNTVYLQMNSLKPEDSEVYYCAARTRTRYGIDYYWGQGTQVTVSS | high polyreactivity
30 | QVQLVESGGGLVQVGGSLRLSCAASGRTFWWYAMGWYRQAPGKERELVAAISRGSTNYADSVKGRFTISRDNAKNTVYLQMNSLKPEDTAVYYCNAVSLYQSHDYDYWGQGTQVTVSS | low polyreactivity
31 | QVQLVESGGGLVQAGGSLRLSCAASGSTLSENVMGWYRQAPGKERELVATISYSGDSTYYADSVKGRFTISRDNAKNTVYLQMNSLIPEDTAVYYCNADHFVTVGQFDWYDSWGQGTQVTVSS | low polyreactivity
32 | QVQLVESGGGLVQAGGSLRLSCAPSGYIPYWYAMGWYRQAPGKERELVAAIDWSGASTNYADSVKGRFTISRDNAKNTVYLQMNSLKPEDTAVYYCAADAVSPDYFVWGDYWGQGTQVTVSS | high polyreactivity
33 | QVQLVESGGGLVQAGGSLRLSCAASGSISWLYAMGWYRQAPGKEREFVAAISESGDTYYADSVKGRFTISRDNAKNTVYLQMNSLKPEDTAVYYCAATRPDGVTYDYWGQGTQVTVSS | low polyreactivity
34 | QVQLVESGGGLVQAGGSLRLSCAASGRIFSRYAMGWYRQAPGKERELVAAITSNGGSTYYADSVKGRFTISRDNAKNTVYLQMNSLKPEDTAVYYCAAKSYWLHYDYWGQGTQVTVSS | high polyreactivity
35 | QVQLVESGGGLVQAGGSLRLSCAASGFIFFGYAMGWYRQAPGKEMELVAAITSGGSTYYADSVKGRFTISRDNAKNTVYLQMNSLKPEDSAVYYCAAVRWYGSKRYGYWGQGTQVTVSS | high polyreactivity
36 | QVQLVESGGGLVQAGGSLRLSCAASGYIFLFYGMGWYRQAPGKERELVASITGTGGNTYYADSVKWRFTISRDNAKNTVYLQMNSLKPEDTAVDYCYADDGYSWGYAYYYSELDYWGQGTQVTVSS | low polyreactivity
37 | QVQLVESGGGLFQAGGSLRLSCAASGSNFDYNAMGWYRPAHGKERELVAAITSTDSTYADSVKGRFTISRDTAKNTVYLQMNRLKPEDTAVYYCAAEDVIYYLTGQWREYDYWGQGTQVTVSS | low polyreactivity
38 | QVQLVESGAGLVQAGGSLRLSCAASGLIFGTDAMGLYRQAPGKESELVAAITSGGRTYYADSVKGRFTISRDNAKNTVYLQLISLKPEDTAVYYCAAEGWWNDTPYDYWGQVTQVTVSS | low polyreactivity
39 | QVQLVESGGGLVQAGGSLRLSCAASGFILLDYAMRWYRQAPGKERELVAAISWSGARTYYADSVKGRFTISRDNAKNTVYLQMNSLKPEDTAVYYCATRYRWTPYDYWGQGTQVTVSS | low polyreactivity
40 | QVQLVESGGGLVQAGGSLRLSCAASGRIFYRYAMGWYIQAPWKERELVASISLSGDSTYYADSVKGRFTISRDNAKNTVYLQMNSLKREDTAFYYCDVEGLGAAVYAGDRYDYWGQGTQVTVSS | low polyreactivity
41 | HVQLQESGGGLVQVGGSLRLSCAASGTIFIYGFLGWNRQAPGKERELVASINLGGITNYADSVKGRFTIRRDNAKNTVYLQMISLKPEDTAVYYCAAYVVTGQNYGYWGQGTQVTVSS | low polyreactivity
42 | QVQLVESGGGLVQAGGSLRLSCAASGSIFGLYAMGWYRQAPGKERDLVAVITYYVGTTYYADSVKGRFTISRDTAKNTVYLQMHSLKPEDTAVYYCAADLYWYYPWSAYYGEYDYWGQGTQVTVSS | low polyreactivity
43 | QVQLVESGGGLVQAGGSLRLSCAASGYIFVYNAMGWYRQAPGKERELVAAITDGGGSTYADSVKGRFTISRDNAKNTVYLQMNSLNPEDTAVYYCAARYSDTTWYVLYYYWGQGTQVTVSS | low polyreactivity
